The record followed here is article PMC11761708.

pKd: −log10 of the molar value.

For orientation: pKd means the negative decadic logarithm of the Kd, by convention in mol/L. Lower therefore signals a large Kd.

For this test, the target named is protein G-Fc (Fc specific protein G variant). Briefly: SPR. A general note: In SPR one partner is held on a chip, and binding of the other changes the refractive index at the surface.

“human Fc (Fc domain of IgG) (domain or fragment)” had a pKd of 8.42.
